Consider one molecule from patent publication US20200407723, “APTAMER BASED AFFINITY CAPTURE METHODS FOR THE SELECTIVE ENRICHMENT OF HUMAN IMMUNOGLOBULIN FC DOMAINS” (Waters Technologies Corporation, published 2020).

One data set deals with bovine serum albumin (Bos taurus, UniProt P02769 P02769:25-607). As to the kind of experiment: pulldown; negative control; negligible non-specific binding in Tris with Mg2+; high non-specific binding with Zn2+, especially without NaCl. Particulars: tags: Sigma-Aldrich; label: 5'-biotin. Here is the method:
A positive pressure manifold (commercially available from Waters Technologies Corporation, Milford, Mass.) was utilized to drive flow through the filter plate. The amount of aptamer immobilized was determined by abosorbance at 260 nm using a DS-11 spectrophotometer (commercially available from DeNovix Inc., Wilmington, Del.). This non-covalently immobilized aptamer affinity resin was used to perform the affinity capture of 100 μg human IgG (IgG from human serum, commercially available from Sigma-Aldrich (now MilliporeSigma), St. Louis, Mo.) contained within 200 μL of several different binding buffers (specified below). After 1 hour of mixing, the resin was washed with two repeated 200 μL volumes to remove any unbound protein. Combined hIgG flow-through and washing fractions were saved to determine the amount of hIgG breakthrough. […] The eluate was saved for hIgG recovery measurements using a fluorescence plate reader (Ex. 280 nm, Em. 370 nm; Gemini™ XPS plate reader, commercially available from Molecular Devices, San Jose, Calif.).
The presence of divalent cations in the binding buffer has the potential to facilitate the activation of the aptamer affinity motif, yet it could also instigate non-specific binding. […] After binding and washing steps, captured proteins were eluted with elution buffer and protein recovery in each eluate was measured using a fluorescence plate reader.

Data set [1] has as its target NISTmAb humanized IgG1 (Fc domain) (UniProt P01857-1 P01857-1:99-330). Nature of the data set: pulldown; from rat plasma, 12.5 ug aptamer, about 85% of 100 ug recovered, purity 10.6% to 72.4%; bound mAb to plasma protein ratio near 7:3; retained in 5 mM CaCl2 Tris. Particulars: chain copies: 2; label: 5'-biotin. As to the method:
280 nm, Em. 370 nm) and re-calculated according to the chromatographic purity assessment. […] After purification, about 85% of the spiked NIST mAb was recovered with purity increasing from 10.6% to 72.4%.
The small portion of impurity in the purified NIST mAb eluate was determined to be the non-specific binding of rat plasma endogenous proteins to the aptamer. The competition in binding between NIST mAb and plasma protein was investigated by loading 20 μL of rat plasma containing 50 μg of NIST mAb onto an increasing amount of immobilized aptamer (5 μg, 12.5 μg, 25 μg). The result of this experiment is summarized in FIG. 8D-E. From which, it is possible to observe that the binding ratio of NIST mAb to plasma protein is close to 7:3 (from UV measurement) for the current experimental approach.
To test out this optional protocol step, 20 μL of plasma and 25 μg of NIST mAb were diluted with binding buffer to 200 μL then loaded onto 40 μL of streptavidin resin wherein 5 μg of aptamer was non-covalently immobilized. […] Herein, the second washing and elution fractions were collected and analyzed by LC-UV analysis. […]

Sequence of bovine serum albumin (P02769 25-607, one chain of several): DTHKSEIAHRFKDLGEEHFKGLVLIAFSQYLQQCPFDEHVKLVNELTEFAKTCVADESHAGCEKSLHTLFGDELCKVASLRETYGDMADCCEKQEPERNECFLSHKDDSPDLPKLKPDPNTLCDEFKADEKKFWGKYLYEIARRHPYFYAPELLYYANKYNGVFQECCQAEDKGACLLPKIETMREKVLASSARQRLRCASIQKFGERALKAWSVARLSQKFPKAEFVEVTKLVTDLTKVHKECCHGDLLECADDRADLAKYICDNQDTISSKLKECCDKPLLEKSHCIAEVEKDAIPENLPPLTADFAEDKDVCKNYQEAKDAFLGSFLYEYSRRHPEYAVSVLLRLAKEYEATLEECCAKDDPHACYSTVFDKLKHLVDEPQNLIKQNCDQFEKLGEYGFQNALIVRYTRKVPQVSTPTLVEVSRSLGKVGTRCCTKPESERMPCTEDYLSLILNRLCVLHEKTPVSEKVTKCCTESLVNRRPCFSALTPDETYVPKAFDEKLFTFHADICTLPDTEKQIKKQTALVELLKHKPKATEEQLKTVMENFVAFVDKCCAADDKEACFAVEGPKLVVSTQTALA

B1: anti-human Fc 23-nt aptamer SEQ ID NO 1 (mixed)
RNA: GGAGGUGCUCCGAAAGGAACUCC
modifications: 2'-F U at 6, 9, 21; 2'-F C at 20; ribonucleotides at A3, G4, G5, G7, G16, G17; all other positions deoxyribonucleotides
Regarding B1, the binding result was “no binding” with bovine serum albumin and “binds” in data set [1].
